Measurements as given in patent US20230212549A1 (3B PHARMACEUTICALS, published 2023).
Where “and” joins values, the source holds several entries; their conditions need not be identical. Equal values may be shown once. Numbered stars: 1 amine (or outer) side, 2 acyl side, 3 side chain; on linkers, the order of the positions; unused ones are H or OH. Bridge positions count the residues as written; N and C are the ends. Square brackets hold non-standard residues; d marks the D form. Primed or numbered codes have the meaning given here. * marks the point of attachment. tMeBn(DOTA-PP) = 1,3,5-trimethylbenzylidene, two thioethers to Cys, third CH2 bound to one N of piperazine whose other N bears DOTA, O=C(O)CN1CCN(CC(=O)O)CCN(CC(=O)N2CCN(Cc3cc(C[*:1])cc(C[*:2])c3)CC2)CCN(CC(=O)O)CC1; N4Ac = 6-Carboxy-1,4,8,11-tetraazaundecane, an N4-chelator, NCCNCC(CNCCN)C(=O)*; APAc = 2-(4-(Amino)piperidin-1-yl)acetic acid, O=C(CN1CCC(N[*:1])CC1)[*:2]; 3MeBn(3) = 3-methylbenzylidene (m-xylylene), from α,α′-dibromo-m-xylene; γGlu = O=C(O)[C@H](CCC(=O)[*:2])N[*:1]; mXylylene = c1cc(C[*:1])cc(C[*:2])c1; Nle = CCCC[C@H](N)C(=O)O; Nphe = O=C(O)CNCc1ccccc1; Octanoyl = CCCCCCCC(=O)*; Hexanoyl = CCCCCC(=O)*; Nleu = CC(C)CNCC(=O)O; Nlys = NCCCCNCC(=O)O

B1: Hex-[Cys(3MeBn)-Nlys-Pro-Thr-Gln-Phe-Cys]-NH2 (peptide)
peptide: Hexanoyl-C[Nlys]PTQFC-NH2
modifications: linker 1-7 via mXylylene
SMILES: CCCCCC(=O)N[C@H]1CSCc2cccc(c2)CSC[C@@H](C(N)=O)NC(=O)[C@H](Cc2ccccc2)NC(=O)[C@H](CCC(N)=O)NC(=O)[C@H]([C@@H](C)O)NC(=O)[C@@H]2CCCN2C(=O)CN(CCCCN)C1=O
B2: Ac-Met-[Cys(3MeBn)-Pro-Pro-Thr-Glu-Phe-Cys]-Ala-His-Phe-Arg-Asp-NH2 (peptide)
peptide: Ac-MCPPTEFCAHFRD-NH2
modifications: linker 2-8 via mXylylene
SMILES: CSCC[C@H](NC(C)=O)C(=O)N[C@H]1CSCc2cccc(c2)CSC[C@@H](C(=O)N[C@@H](C)C(=O)N[C@@H](Cc2c[nH]cn2)C(=O)N[C@@H](Cc2ccccc2)C(=O)N[C@@H](CCCNC(=N)N)C(=O)N[C@@H](CC(=O)O)C(N)=O)NC(=O)[C@H](Cc2ccccc2)NC(=O)[C@H](CCC(=O)O)NC(=O)[C@H]([C@@H](C)O)NC(=O)[C@@H]2CCCN2C(=O)[C@@H]2CCCN2C1=O
notes: also called 3BP-3194
B3: Hex-[Cys(tMeBn(DOTA-PP))-Phe-Gln-Thr-Pro-Pro-Cys]-Asp-NH2 (peptide)
peptide: Hexanoyl-CFQTPPCD-NH2
modifications: linker 1-7 via tMeBn(DOTA-PP)
SMILES: CCCCCC(=O)N[C@H]1CSCc2cc(cc(CN3CCN(C(=O)CN4CCN(CC(=O)O)CCN(CC(=O)O)CCN(CC(=O)O)CC4)CC3)c2)CSC[C@@H](C(=O)N[C@@H](CC(=O)O)C(N)=O)NC(=O)[C@@H]2CCCN2C(=O)[C@@H]2CCCN2C(=O)[C@H]([C@@H](C)O)NC(=O)[C@H](CCC(N)=O)NC(=O)[C@H](Cc2ccccc2)NC1=O
B4: Oct-[Cys(3MeBn)-Pro-Pro-Thr-Gln-Phe-Cys]-Asp-NH2 (peptide)
peptide: Octanoyl-CPPTQFCD-NH2
modifications: linker 1-7 via mXylylene
SMILES: CCCCCCCC(=O)N[C@H]1CSCc2cccc(c2)CSC[C@@H](C(=O)N[C@@H](CC(=O)O)C(N)=O)NC(=O)[C@H](Cc2ccccc2)NC(=O)[C@H](CCC(N)=O)NC(=O)[C@H]([C@@H](C)O)NC(=O)[C@@H]2CCCN2C(=O)[C@@H]2CCCN2C1=O
notes: also called 3BP-3417
B5: Hex-[Cys(3MeBn)-Nleu-Pro-Thr-Gln-Phe-Cys]-NH2 (peptide)
peptide: Hexanoyl-C[Nleu]PTQFC-NH2
modifications: linker 1-7 via mXylylene
SMILES: CCCCCC(=O)N[C@H]1CSCc2cccc(c2)CSC[C@@H](C(N)=O)NC(=O)[C@H](Cc2ccccc2)NC(=O)[C@H](CCC(N)=O)NC(=O)[C@H]([C@@H](C)O)NC(=O)[C@@H]2CCCN2C(=O)CN(CC(C)C)C1=O
B6: Hex-[Cys(tMeBn(InDOTA-AET))-Pro-Pro-Thr-Gln-Phe-AET] (peptide)
peptide: CPPTQFX
modifications: not fully specified; N-term Hex; X7 = AET; Cys1/AET7 thioether-cyclised via tMeBn(InDOTA-AET)
notes: also called 3BP-3713
B7: Hex-[Cys(3MeBn)-Pro-Pro-Thr-Gln-Trp-Cys]-NH2 (peptide)
peptide: Hexanoyl-CPPTQWC-NH2
modifications: linker 1-7 via mXylylene
SMILES: CCCCCC(=O)N[C@H]1CSCc2cccc(c2)CSC[C@@H](C(N)=O)NC(=O)[C@H](Cc2c[nH]c3ccccc23)NC(=O)[C@H](CCC(N)=O)NC(=O)[C@H]([C@@H](C)O)NC(=O)[C@@H]2CCCN2C(=O)[C@@H]2CCCN2C1=O
notes: also called 3BP-3408
B8: Hex-[Cys(3MeBn)-Pro-Pro-Thr-Glu-Phe-Cys]-OH (peptide)
peptide: Hexanoyl-CPPTEFC-OH
modifications: linker 1-7 via mXylylene
SMILES: CCCCCC(=O)N[C@H]1CSCc2cccc(c2)CSC[C@@H](C(=O)O)NC(=O)[C@H](Cc2ccccc2)NC(=O)[C@H](CCC(=O)O)NC(=O)[C@H]([C@@H](C)O)NC(=O)[C@@H]2CCCN2C(=O)[C@@H]2CCCN2C1=O
notes: also called 3BP-3370
B9: Hex-[Cys(3MeBn)-Nphe-Pro-Thr-Gln-Phe-Cys]-NH2 (peptide)
peptide: Hexanoyl-C[Nphe]PTQFC-NH2
modifications: linker 1-7 via mXylylene
SMILES: CCCCCC(=O)N[C@H]1CSCc2cccc(c2)CSC[C@@H](C(N)=O)NC(=O)[C@H](Cc2ccccc2)NC(=O)[C@H](CCC(N)=O)NC(=O)[C@H]([C@@H](C)O)NC(=O)[C@@H]2CCCN2C(=O)CN(Cc2ccccc2)C1=O
B10: N4Ac-gGlu-Nle-[Cys-(3MeBn)-Pro-Pro-Thr-Glu-Phe-Cys]-OH (peptide)
peptide: N4Ac-[γGlu][Nle]CPPTEFC-OH
modifications: linker 3-9 via mXylylene
SMILES: CCCC[C@H](NC(=O)CC[C@H](NC(=O)C(CNCCN)CNCCN)C(=O)O)C(=O)N[C@H]1CSCc2cccc(c2)CSC[C@@H](C(=O)O)NC(=O)[C@H](Cc2ccccc2)NC(=O)[C@H](CCC(=O)O)NC(=O)[C@H]([C@@H](C)O)NC(=O)[C@@H]2CCCN2C(=O)[C@@H]2CCCN2C1=O

How the values were obtained:
[1] = molecular target: T1, Recombinant human FAP (R&D systems, #3715-SE) (human, UniProt Q12884 26-760); test: SPR (Biacore T200), FAP captured on anti-FAP antibody, single cycle kinetics
T1 construct: bought; in SPR captured on immobilized anti-FAP antibody MAB3715; also called rhFAP; human recombinant FAP

[2] = molecular target: T1, Recombinant human FAP (R&D systems, …); test: cell-based or functional assay
[3] = molecular target: T2, fibroblast activation protein (FAP) on FAP-expressing human WI-38 fibroblasts (human, UniProt Q12884 1-760); test: competitive FACS, WI-38 cells, vs Cy5 tracer m3; B = pIC50 7.1-8.0
T2 construct: also called human FAP

[4] = molecular target: Recombinant human FAP (R&D systems, #3715-SE) (human, UniProt Q12884 26-760); test: cell-based or functional assay; remark: listed apart in the source

Row | Binder | pIC50 Category (Activity) [2] | pIC50 Category (FACS) [3] | pIC50 Category (Activity) [4] | also measured
1 | Hexanoyl-CPPTQFCD-NH2 (linker 1-7 via tMeBn(GaDOTA-PP); also: Ga complex (GaDOTA), also called 3BP-3592) [Hex-[Cys(tMeBn(GaDOTA-PP))-Pro-Pro-Thr-Gln-Phe-Cys]-Asp-NH2] |  |  |  | pKD Category [1]: > 8 pKD
2 | N4Ac-[APAc][Nle]CPPTEFC-OH (linker 3-9 via 3MeBn(3)) [N4Ac-APAc-Nle-[Cys-(3MeBn)-Pro-Pro-Thr-Glu-Phe-Cys]-OH] | ≤ 6 pIC50 |  |  | 
3 | B1 | ≤ 6 pIC50 |  |  | 
4 | B2 |  | 7.1 pIC50 and 8 pIC50 | 7.1 pIC50 and 8 pIC50 | 
5 | B3 | ≤ 6 pIC50 |  |  | 
6 | B4 |  | 7.1 pIC50 and 8 pIC50 | 7.1 pIC50 and 8 pIC50 | 
7 | B5 | ≤ 6 pIC50 |  |  | 
8 | B6 |  |  |  | pKD Category [1]: > 8 pKD
9 | B7 |  | 7.1 pIC50 and 8 pIC50 | 7.1 pIC50 and 8 pIC50 | 
10 | B8 |  | 7.1 pIC50 and 8 pIC50 | 7.1 pIC50 and 8 pIC50 | 
11 | B9 | ≤ 6 pIC50 |  |  | 
12 | B10 | ≤ 6 pIC50 |  |  | 
